This experiment has as its target IL2Rαβγ, the high affinity IL-2 receptor, on human Treg cells (human) (UniProt P01589). Briefly: cell-based or functional assay.

IL2Rαβγ, the high affinity IL-2 receptor, on human Treg cells (human), sequence (P01589 22-272, chain 1 of 3): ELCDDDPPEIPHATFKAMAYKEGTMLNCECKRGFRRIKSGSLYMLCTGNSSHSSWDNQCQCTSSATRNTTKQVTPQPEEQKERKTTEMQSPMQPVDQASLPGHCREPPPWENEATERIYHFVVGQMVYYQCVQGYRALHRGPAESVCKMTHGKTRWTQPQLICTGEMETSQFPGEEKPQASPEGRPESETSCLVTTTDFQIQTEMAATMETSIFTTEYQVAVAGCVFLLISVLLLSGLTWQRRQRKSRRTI
IL2Rαβγ, the high affinity IL-2 receptor, on human Treg cells (human), sequence (P14784 27-551, chain 2 of 3, further chain): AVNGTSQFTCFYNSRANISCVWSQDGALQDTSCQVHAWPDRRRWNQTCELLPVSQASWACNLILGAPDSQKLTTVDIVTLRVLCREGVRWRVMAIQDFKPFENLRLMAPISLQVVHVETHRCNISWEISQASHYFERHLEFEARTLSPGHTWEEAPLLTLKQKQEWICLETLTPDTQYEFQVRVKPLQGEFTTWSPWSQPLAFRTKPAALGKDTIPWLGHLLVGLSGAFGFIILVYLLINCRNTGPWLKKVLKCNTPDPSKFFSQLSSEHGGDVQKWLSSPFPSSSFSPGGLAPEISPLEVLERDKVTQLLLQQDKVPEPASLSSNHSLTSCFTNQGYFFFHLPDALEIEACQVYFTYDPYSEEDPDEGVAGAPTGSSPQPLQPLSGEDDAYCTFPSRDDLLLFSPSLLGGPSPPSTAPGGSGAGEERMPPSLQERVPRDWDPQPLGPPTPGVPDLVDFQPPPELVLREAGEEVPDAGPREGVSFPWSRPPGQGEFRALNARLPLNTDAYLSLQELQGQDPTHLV
IL2Rαβγ, the high affinity IL-2 receptor, on human Treg cells (human), sequence (P31785 23-369, chain 3 of 3, further chain): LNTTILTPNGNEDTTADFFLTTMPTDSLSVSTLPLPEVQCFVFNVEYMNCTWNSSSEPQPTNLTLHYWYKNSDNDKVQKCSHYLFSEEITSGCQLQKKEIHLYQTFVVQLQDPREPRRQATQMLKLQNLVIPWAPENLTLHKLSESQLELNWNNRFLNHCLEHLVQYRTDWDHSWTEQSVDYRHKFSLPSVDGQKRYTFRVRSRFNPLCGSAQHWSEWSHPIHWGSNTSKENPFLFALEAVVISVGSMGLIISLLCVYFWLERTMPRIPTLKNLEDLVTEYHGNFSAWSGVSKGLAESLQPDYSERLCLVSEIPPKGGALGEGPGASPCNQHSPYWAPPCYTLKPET

“N88R/IL2 (from UniProt P60568 21-153) (ligand)” returned a Percentage of pSTAT5+ cells, Treg cells in human PBMC, 10^-8 M protein of 99.9%.
